Measured values published in article PMC4158905.

Assays:
[1] = target: dynein heavy chain (DYNC1H1) (human) (UniProt Q14204); experiment: SEC-MALS; purified recombinant dynein complex; single peak of approximately 1.40 MDa against 1.42 MDa expected for a dimeric complex of all six chains
[2] = target: recombinant human cytoplasmic dynein 1 complex (human) (UniProt Q14204)
[3] = target: recombinant human cytoplasmic dynein 1 complex (human) (UniProt Q14204); experiment: single-molecule two-colour co-localisation (TIRF microscopy); roughly equimolar TMR–dynein and Alexa647–dynein mixed, puncta on microtubules scored for both dyes in kymographs, 2.5 mM ATP; done without and with dynactin and BICD2N

## dynein heavy chain (DYNC1H1), Q14204 1-4646
[1]
  stoichiometry N: 2

## native dynactin complex from pig brains (from UniProt A0A287B8J2 1-1281; A0A5G2QD80 1-405)
[2]
  proportion of TMR–dynein complexes with unidirectional minus end-directed movement on microtubules, with dynactin and BICD2N at 20 BICD2N dimers: 1 dynein complex: 2 dynactin complexes: 23%

## recombinant human cytoplasmic dynein 1 complex (from UniProt Q14204 1-4646; O43237-1 1-492; P63172 1-113; Q9NP97-1 1-96; P63167 1-89)
[3]
  percent of dynein puncta that contained both dyes: 6%
